Measured values taken from paper PMC3778016, “Tracking of Chromosome and Replisome Dynamics in Myxococcus xanthus Reveals a Novel Chromosome Arrangement”.

Tests used:
[1] = molecular target: T1, His6-ParB (Myxococcus xanthus DK1622, UniProt Q1CVJ4 1-296); assay: EMSA; 100 nM DNA, 0.1-6 uM His6-ParB, 5 uM pBluescript II SK- competitor, 5 mM Mg2+; 38 mM Hepes/NaOH pH 7.2, 38 mM NaCl, 5 mM MgCl2, 7% glycerol, 1 mM beta-mercaptoethanol, 20 min at 30 C; 6% PAGE at 4 C in 1xTBE + 5 mM MgCl2; settings: protein: recombinant; tags: N-terminal His6 (pET45b+); chain copies: 2; blunt
T1 sequence: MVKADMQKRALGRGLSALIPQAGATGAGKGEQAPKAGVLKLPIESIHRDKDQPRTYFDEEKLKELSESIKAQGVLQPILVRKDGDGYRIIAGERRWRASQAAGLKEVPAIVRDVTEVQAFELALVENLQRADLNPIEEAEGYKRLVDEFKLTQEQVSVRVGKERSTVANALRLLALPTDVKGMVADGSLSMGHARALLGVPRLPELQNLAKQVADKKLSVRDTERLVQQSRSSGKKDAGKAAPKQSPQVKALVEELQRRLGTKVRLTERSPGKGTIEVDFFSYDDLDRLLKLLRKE

[2] = molecular target: T1, His6-ParB; assay: as above; settings: protein: recombinant; tags: N-terminal His6 (pET45b+); chain copies: 2; blunt; remark: listed apart in the source

B1: HEX-parS consensus (dsDNA)
DNA 1: GAGGCTTGTTCCACGTGGAACGTCGG
DNA 2: CCGACGTTCCACGTGGAACAAGCCTC
**Q.** Does B1 bind [1]?
**A.** Result: binds

B2: HEX-parSmut (dsDNA)
DNA 1: GAGGCTTGCCCCACGTGGAACGTCGG
DNA 2: CCGACGTTCCACGTGGGGCAAGCCTC
**Q.** Which binding signal [2] does the source give for B2 here?
**A.** The binding signal was ~10 fold reduced affinity vs N1.
